{"source": "the DeepSol protein solubility set", "data": [{"test": "soluble on expression in E. coli; label from the status in PepcDB or PDB records", "values": [{"sequence": "MGSSHHHHHHGKTIFVIVPTNEEQVAFLEALAKQDELNFDWQNPPTEPGQPVVILIPSDMVEWFLEMLKAKGIPFTVYVEEGGSENLYFQGGGGGGRSSRHLCGLPTVRTVAATGWRYHRHGAPEKVLQYERYRVPFDRTSGQVVVKMLAAPVHRHDKNLIEGHGGPIAVPKACLPHVAGVEGVGVVEEVGSNAKLALKEGDMVWINNPSVGSWATHIVTDAENLDVVPCRADVDIEYLASLSLFHTAYHLTHDFVNIQPNDVVLQTGASSSIAQICQGYLRAKGAKLFQTMQLGRTEHAHLLAFFKLRGAFAVVPYNYARTNYMRRLLSDVPPPKLLLNHTCGGYASNLVNLLGDNGVCVTYGNTSHQPMQISNMDAIARGVQFKGFFLPSWIRRHTREARMRVHQNVVESMTITQGHGIFRAQRFKMDGDSAFAFSNAWDAPLASRKAVLRIVGEYGEWRRPRSDQAGWNIGRAVWEDMLQQMWESAGTTENPQSMKYYTPFDDIHSSFYDAKQSKELGHRDVFFRRPNAPRHNAAEQQQ", "soluble on expression in E. coli": "not soluble"}, {"sequence": "MDTMGRHVISELWGCDFDKLNDIDFIEKTFVDAALKSGAEIREVAFHKFAPQGVSGVVIISESHLTIHTFPEHGYASIDVYTCGHLDPTIAADYIAEMLGAQTRETIELPRGMRPIEVKKAQAL", "soluble on expression in E. coli": "soluble"}, {"sequence": "MGKEYPYGLLRCFVRRIGKPTDSPRMTSAPTSNQSNPAWSRDELVLALNLYLLHRNGLPGVNHPDVLALSQALNLIGNATGVSKNQSFRNANGVCMKLNNFRRWDPSYTNNGRTGLAKGNKDEQLVWLEFANDPERLAEVVAAINANVQMIPASPIDLSAADDPGFFEAEEGKVLTRVHRVRERDKKIVKRKKEEALTQHGALQCEACGFNFSQTYGADVEGVIDVHHTKPLHTLQPGDKTKLADLALLCANCHRVLHSQRKWLSVAEVKERYQANLKQIQMLEHHHHHH", "soluble on expression in E. coli": "soluble"}, {"sequence": "MGSDKIHHHHHHMDNNNSYLWPVTYDEVSHELTKWKFYKHFTKISGSVYLKNDLIDDPVLVTQALIKRCPQGVLRGYAALNRRGYQLFDDPWMPIISISGEPRTRKTTNVGKIIRRETPENLRRSGEFTLVSDSQALLDVFSLHGLDSFEHQVALIDHLIRQCPDLKDEIKKVPELRKHAEFTDEFAESPPESRLRVRLHMQGYRNFMPQVRVELEGRRFYLDLADPVWGVALEYNGGWHYTAEQRSKDAFRKNALKNAGWDVFEVTSKTLQSQQAWDYFFQQVRVAIQRKYADRKRRLPMQTVS", "soluble on expression in E. coli": "not soluble"}, {"sequence": "MYREFYGLTEKPFSKTPDPRYLFLSRGHREALARLQYAVEERELALLTGDIGCGKTTISRALMDAVGNDGCFCFIVNPRLSAVEFLRTVARSLGIAEPAAAKDELLRQLTEAVYRLEGEKRCPVIIIDEAQLIPDQEVFDEIRLLTNFQLDDRNLMSVILMGQPELRQILSEPAHEALRQRIAMHYHLQPLSLEETLEYVDFRVEVAGGPQGLFSPDAIRRIYELSGGVPRKINILATNALLVGFGKDSAWIDASLVEELRDEASLYLEHHHHHH", "soluble on expression in E. coli": "not soluble"}, {"sequence": "SESPWIAEDTSQIQTKLLEFAKSPEVFDWMVKIRRKIHENPELGYEELETSKLIRSELELIGIKYRYPVAITGVIGYIGTGEPPFVALRADMDALPIQEGVEWEHKSKIAGKMHACGHDGHVTMLLGAAKILHEHRHHLQGTVVLIFQPAEEGLSGAKKMREEGALKNVEAIFGIHLSARIPFGKAASRAGSFLAGAGVFEAVITGKGGHAAIPQHTIDPVVAASSIVLSLQQLVSRETDPLDSKVVTVSKVNGGNAFNVIPDSITIGGTLRAFTGFTQLQQRVKEVITKQAAVHRCNASVNLTPNGREPMPPTVNNKDLYKQFKKVVRDLLGQEAFVEAAPVMGSEDFSYFAETIPGHFSLLGMQDETNGYASSHSPLYRINEDVLPYGAAIHASMAVQYLKEKASKGSVSGFHEEL", "soluble on expression in E. coli": "soluble"}, {"sequence": "MGSDKIHHHHHHMSYYLRSASLTNYVEVARAVGLDPHQFLRAAKISRDVLLDPDIRIPAKKVGRLLDDSARAAHVDDFGLRMAELRQVSNLGPLAFVVREQPTLRRALESMVRYMGVQNEALAMRMEESEGLLMIRLHILNDQPGTLRQATDLAVGVVYRLLSVCLGASWRPRSICFTHAAPASQATFQRVFGMPCVFNQDFDGIVCVAADLEAPLPSYDPVMAHQVKRYLGTLLAQANTTLPDKVRELVHVLLPSGMCSVDRVAQHLGVDRRTVHRRLAQENTSYSDIVNAARASLVVRYIDNRERPLSEVATLLGFSSLSAFSRWFGGQFGCSVSKWRLQHEGQGRNTA", "soluble on expression in E. coli": "not soluble"}, {"sequence": "SKYVDRVIAEVEKKYADEPEFVQTVEEVLSSLGPVVDAHPEYEEVALLERMVIPERVIEFRVPWEDDNGKVHVNTGYRVQFNGAIGPYLGGLRFAPSVNLSIMKFLGFEQAFKDSLTTLPMGGAKGGSDFDPNGKSDREVMRFCQAFMTELYRHIGPDIDVPAGDLGVGARELGYMYGQYRKIVGGFYNGVLTGKARSFGGSLVRPEATGYGSVYYVEAVMKHENDTLVGKTVALAGFGNVAWGAAKKLAELGAKAVTLSGPDGYIYDPEGITTEEKINYMLEMRASGRNKVQDYADKFGVQFFPGEKPWGQKVDIIMPCATQNDVDLEQAKKIVANNVKYYIEVANMPTTNEALRFLMQQPNMVVAPSKAVNAGGVLVSGFEMSQNSERLSWTAEEVDSKLHQVMTDIHDGSAAAAERYGLGYNLVAGANIVGFQKIADAMMAQGIAW", "soluble on expression in E. coli": "soluble"}, {"sequence": "GMGDSAGLPPIYADKPIELAPAKIITSFPVNTFLENLASAPDGTIFVTNHEVGEIVSITPDGNQQIHATVEGKVSGLAFTSNGDLVATGWNADSIPVVSLVKSDGTVETLLTLPDAIFLNGITPLSDTQYLTADSYRGAIWLIDVVQPSGSIWLEHPMLARSNSESVFPAANGLKRFGNFLYVSNTEKMLLLRIPVDSTDKPGEPEIFVEQTNIDDFAFDVEGNLYGATHIYNSVVRIAPDRSTTIIAQAEQGVIGSTAVAFGQTEGDCTAIYVVTNGGMFLPPPTGVVPANVVRLEVGKPGYPLG", "soluble on expression in E. coli": "soluble"}, {"sequence": "MGSDKIHHHHHHMYMYVNDKLVKEEEAIISPFDHGYMYGLGLFETFRLYEGHPFLLDDHFVRLEEGLRALAIDWTYNRSHVLHQLATLCNKNGVRNAYIRWNVSAGPGPIGLYTDTYKEPTVIIYMKSLPQGLSTRKTGTLLELRRNTPEGDRRLKSHHFLNNVLGKREVAKDPQTEGIFLTEDGVLAEGLTSNVFWVKNGVVYTPSVDTGILNGITRQFVLTLCDKEGIPWREGRYPKEALLKADGAFITNSIQEIVTLTSVGQAEFNQDEAVIMSLRKSYQKYCTKLWSKNEIKEGKQDVNNTCK", "soluble on expression in E. coli": "not soluble"}, {"sequence": "MYHSLFESLCMVPDPRIERKKIYPLDFLLLIVFLSTLSGNTSWYEIEDYAEEYEEELKSLYEMLTGHQLMHTMPSHDTLNRSISLLDVEAFEGAYKRWIEGFISATSGKHICIDGKTMRGVKKLSFDTQSHVVSAFSPQDMCSLAQLYIDRKTNEIPAIHQLLDLLDLNGAVVSIDAIGTQTAIAEQIIDKGGNYVLCVKANQSLSLQEIEAYFCPLFQKHILLDEQTELSHGRIETRRYESILNPLEIEANEVLTRWKGLRSIHKVVRKRRDKKSDKTSEEVAYYISSLTDVSSLKQAIRGHWAIENKLHHCLDVYFGHDASHKRTRNVAQIMDIIQKINLLIIERLKTNMKSSIPRIQKKLARMKPQQLITIQF", "soluble on expression in E. coli": "not soluble"}, {"sequence": "MKNDVISPEFDENGRPLRRIRSFVRRQGRLTKGQEHALENYWPVMGVEFSEAPVDFATLFGREAPVTLEIGFGMGASLVAMAKARPEQNFLGIEVHSPGVGACLASANEEGVENLRVMCHDAVEVLHKMIPDNSLSMVQLFFPDPWHKARHNKRRIVQVPFAELVLSKLKLGGVFHMATDWEAYAEHMLEVMSSIDGYKNLSESNDYVPRPESRPVTKFEQRGHRLGHGVWDLMFERVK", "soluble on expression in E. coli": "not soluble"}, {"sequence": "MSLAPPVRSLHIGTVAGFTADPQHLDRIAIHLPALNLPDSLIFARLSKPWASHASGFCFYPEPGDEVVVGFIDSDPRYPMILGALHNPKNTAPFPPDEKNNRKGLIVSQADQTQALMIDTEEKTLRLMAGDNTLTLTGEGNLTMSTPNALQLQADTLGLQADSNLSIAGKQQVEITSAKINMKEGHHHHHH", "soluble on expression in E. coli": "soluble"}, {"sequence": "GPLPVDLRGKTAFVAGVADSNGYGWAICKLLRAAGARVLVGTWPPVYSIFKKGLESSRFEQDSFYAQEPSSKVAAEAAEKPVDLVFDKIYPLDAVFDTPQDVPPEVSSNKRYAGVGGFTISEVAEAVRADVGQIDILVHSLANGPEVTKPLLQTSRKGYLAAVSSSSYSFVSLLQHFLPLMKEGGSALALSYIASEKVIPGYGGGMSSAKAALESDCRTLAFEAGRARAVRVNCISAGPLKSRAASAIGKAGDKTFIDLAIDYSEANAPLQKELESDDVGRAALFLLSPLARAVTGATLYVDNGLHAMGQALDSKSLTP", "soluble on expression in E. coli": "soluble"}, {"sequence": "DIKMTQSPSSMSASLGESVTITCKASRDIKSYLSWYQQKPWKSPKTLIYYATSLADGVPSRFSGSGSGQDYSLTISSLESDDTATYYCLQHGESPFTFGSGTKLELKRADAAPTVSIFPPSSEQLTSGGASVVCFLNNFYPKDINVKWKIDGSERQNGVLNSWTDQDSKDSTYSMSSTLTLTKDEYERHNSYTCEATHKTSTSPIVKSFN", "soluble on expression in E. coli": "soluble"}, {"sequence": "MSEKRLTMKETIRRKALSLGFCAVGFAAADTLNEAMKEYRAMIDEGRHGEMGYLETGLEARANPELLLPGVKSVLSAALPWPAPAKPGAISGYAVIPDYHRVVGELLKELLDFIRSICDHPINGQICVDSSPVLEKEWAEAAGIGRTGKNTLLIVPGYGSRVFLGELLLDLELEPDTPLDWNPCGDCTACLDACPTGALNTPGKLDARRCISYLTIELKRDFTDEEAAMTNGWFYGCDHCLDACPHNANIEATGYPGFEQKKELVNLTPEKALELTHSQFRKRFAGTPALRLGLRRLKRNARAAVANKSQSKS", "soluble on expression in E. coli": "not soluble"}, {"sequence": "MSLTNRSGKDFADEKLLTVLAEVERDLEITYDDLQKQAIIGAMNQQFFILTGGPGTGKTTIINGFIETYARLHQLDLDPDHYNDDVFPILLAAPTGRASRRMNELTGLPAATIHRHLGLGQDEAEDALGNELSGALLIVDEFSMVDTWLANKLFQAIPGSMKVLLVGDADQLPSVGPGQIFADLLKIPEIPSVKLDKIFRQGDDSTITDLAHHIKDGQLPSDFTAKKPDRSYFEVSANFVPQMVEQIASAWQKRGNNPFELQILAPMYKGMAGINAMNVLLQNLFNPLNDRLEFALGDMKFREGDKVLHLVNDAEANVFNGDLGQIVELIAAKYTDSKQDELVMDFDGQELTYPRAEWYKITLAYAMSIHKSQGSEFSTVIVPMVSSYSRMLERNLLYTAITRAKQSLILLGEERAFAQAVAREGANRKTYLIERFMGENEGHHHHHH", "soluble on expression in E. coli": "not soluble"}, {"sequence": "MKKPIEFYLSGDRVYSTREKAINQLYNNRGYGELKGDKLFLSLIEAAYLTEKGWIKVVDKDKELKFDDLMKLGKSRDEDFDIKYIVYKDLRDRGYIVKSALKFGSHYRVYRKDAEHSDWLIWVLRENQRLSPNDITARARVAHGVRKNMVLAIVDEDGDVVYYKVEWIKF", "soluble on expression in E. coli": "soluble"}, {"sequence": "MKSGEKDYSVKEAMIFSQRIAQLSKALWKCVEKDWQQWIKPYDLNINEHHILTIAYHLKGASISEIAKFGVMHVSTAFNFSKKLEERGYLVFSKKEDDKRNTYIEITDKGEELLLRLMEEYDPENNSVFNGALALRNFYGKFPENIELIAILRNIYGQDFIDIFEKSLEDIEENFTESDQKLVKK", "soluble on expression in E. coli": "not soluble"}, {"sequence": "MSEQIRLENLTIFMQRRAVKHVYLRVHPPDGRVTLVAPTGMRLEVVRAFVTAKLDWIHKQQAKLQAQVREVPRQFIGGESHTVWGRHYVLQVVEKSAGPCVLMDQQTITLQVRPGSDLFKRAAVMHAWHKSLLHAVVPDLIGKWQDRLGVSVSAYFLQQMKTRWGSCNTRRRHIRLNTDLVRKPQDLLEYVVVHELVHLIEPSHNKRFVGLMDQHYPAWREATAELNQIPLSAIRPRGLEHHHHHH", "soluble on expression in E. coli": "not soluble"}, {"sequence": "MSHELVELLRSVLKEELQPIHERLDRLEAGQQRLEERQQRLEERQQRLEERQQRLEEQQQRLGEKLDHFIIETRSHFKKIEDKLAGHRRMFDILPHDWRDTTMAIEYLKHKISQHDLEIYQLKKRLELQETK", "soluble on expression in E. coli": "not soluble"}]}]}
